From patent US20050042213

Assays:
[1] = test system: T1, Z-Pro-Lys-Lys-Glu-AMC (Peptide 1)
T1 sequence: PKKE

[2] = test system: T2, pro-heparanase (H60), purified recombinant human 60 kDa latent heparanase
T2 sequence: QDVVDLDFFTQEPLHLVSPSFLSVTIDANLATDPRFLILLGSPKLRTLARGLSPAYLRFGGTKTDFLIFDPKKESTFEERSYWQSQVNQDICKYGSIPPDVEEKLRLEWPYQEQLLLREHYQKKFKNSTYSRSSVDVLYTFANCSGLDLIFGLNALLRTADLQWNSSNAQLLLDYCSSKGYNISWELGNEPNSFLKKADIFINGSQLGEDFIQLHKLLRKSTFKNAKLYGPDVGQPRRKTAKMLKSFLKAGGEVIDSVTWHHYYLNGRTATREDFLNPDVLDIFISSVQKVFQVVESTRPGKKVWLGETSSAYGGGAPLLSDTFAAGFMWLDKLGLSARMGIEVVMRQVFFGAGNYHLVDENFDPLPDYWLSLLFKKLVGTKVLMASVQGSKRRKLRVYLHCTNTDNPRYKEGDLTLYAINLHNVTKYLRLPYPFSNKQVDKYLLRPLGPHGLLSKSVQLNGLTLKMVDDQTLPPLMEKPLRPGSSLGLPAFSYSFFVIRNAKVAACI

Z-Arg-Arg-AMC = test system: T3, Z-Arg-Arg-AMC
T3 sequence: RR

| Substance | Activity (δfluorescence) (δfluorescence) [1] | heparanase activity after treatment (DMB assay) [2] | processing of pro-heparanase in vitro (Western blot) [2] | Activity (δfluorescence) (δfluorescence) (Z-Arg-Arg-AMC) |
| --- | --- | --- | --- | --- |
| Cathepsin B | 8930 | Cathepsin B did not activate the pro-heparanase | Cathepsin B in the presence of heparin but not when the cathepsin B inhibitor CA074 was added, also processed the pro-heparanase | 53300 |
| Cathepsin D |  | Cathepsin D treatment caused an increase in heparanase activity and pepstatin A inhibited this activation | When heparin was included in the reaction mixture, heparanase was processed by cathepsin D and a 45 kDa polypeptide was detected |  |
| Cathepsin L | 0 |  |  |  |
